The target of experiment [1] is T1, human ST2 (hST2, Interleukin-1 receptor-like 1 isoform A) on cells (human, UniProt Q01638 19-556).
T1 sequence: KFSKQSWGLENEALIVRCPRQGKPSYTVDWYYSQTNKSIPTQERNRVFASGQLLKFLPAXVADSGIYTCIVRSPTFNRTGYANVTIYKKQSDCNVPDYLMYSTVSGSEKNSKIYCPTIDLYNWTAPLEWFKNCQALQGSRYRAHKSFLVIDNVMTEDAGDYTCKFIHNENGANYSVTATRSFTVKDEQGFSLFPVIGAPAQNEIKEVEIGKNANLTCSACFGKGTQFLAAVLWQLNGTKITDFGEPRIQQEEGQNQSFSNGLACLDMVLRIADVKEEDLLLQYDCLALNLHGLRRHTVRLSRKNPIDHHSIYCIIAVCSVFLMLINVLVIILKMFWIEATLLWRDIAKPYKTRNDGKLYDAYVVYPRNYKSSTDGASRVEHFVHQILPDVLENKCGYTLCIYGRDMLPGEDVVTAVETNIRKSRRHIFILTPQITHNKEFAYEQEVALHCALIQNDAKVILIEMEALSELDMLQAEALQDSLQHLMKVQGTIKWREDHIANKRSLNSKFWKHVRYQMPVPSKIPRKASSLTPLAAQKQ
The experiment is described as follows: cell-based or functional assay.

For experiment [2], the target named is T2, cynomolgus monkey ST2 antigen (Cyno-ST2-his, Sino biological, 90915-C08H) (cynomolgus monkey, UniProt Q01638 19-328 (human entry)).
T2 construct: Bought protein; not shown: his tag
T2 chain: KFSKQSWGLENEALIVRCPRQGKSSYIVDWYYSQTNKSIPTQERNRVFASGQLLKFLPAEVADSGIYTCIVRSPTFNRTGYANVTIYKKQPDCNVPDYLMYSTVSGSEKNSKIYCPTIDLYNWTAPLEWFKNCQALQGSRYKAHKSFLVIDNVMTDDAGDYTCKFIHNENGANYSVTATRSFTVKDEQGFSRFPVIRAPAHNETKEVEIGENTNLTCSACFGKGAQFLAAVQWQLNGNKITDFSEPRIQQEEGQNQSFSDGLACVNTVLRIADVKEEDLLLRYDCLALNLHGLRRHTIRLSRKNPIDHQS
In words: ELISA, plate coated with Cyno-ST2-his. The protocol: ST2 binding screening and analysis of antibodies were performed by ELISA using hST2-ECD-mFc (for assays of chimeric and humanized antibodies), hST2-ECD-hFc protein (for assays of hybridoma antibodies) and Cyno-ST2-his (Sino biological, 90915-C08H) as antigens. A high-adsorption 96-well plate (Costar, 9018) was coated with 2 µg/mL hST2-ECD-mFc or Cyno-ST2-his antigen at 100 µL/well and incubated overnight at 4° C. After the antigen not adsorbed was well washed off, the non-specific binding sites were blocked with a blocking buffer (PBS containing 2% bovine serum albumin). After the plate was washed three times with a washing buffer (PBS containing 0.05% (v/v) Tween 20), the anti-ST2 antibodies (serially diluted 3-fold from an initial concentration of 10 nM to 8 concentrations: 3.333 nM, 1.111 nM, 0.370 nM, 0.123 nM, 0.041 nM, 0.014 nM, 0.005 nM, and 0.002 nM) were added at 100 µL/well, and the plate was incubated at room temperature for 1 h. After the plate was washed with the washing buffer, a horseradish peroxidase (HRP)-conjugated secondary antibody was added, and the plate was incubated for another 60 min. After the plate was washed with the washing buffer, the substrate TMB solution (Thermo, 00-4201-56) was added at 100 µL/well, and the plate was incubated at room temperature for 2 min. A stop solution (2 N H₂SO₄) was added at 100 µL/well to terminate the reactions. Colorimetric signals were generated and read at 450 nm using a microplate reader (PE, Envision). The data were analyzed using GraphPad Prism5, and the EC₅₀ values were calculated.
The humanized antibodies hz31C81-1.1 (the amino acid sequence of the heavy chain set forth in SEQ ID NO: 75 and the amino acid sequence of the light chain set forth in SEQ ID NO: 81) and hz31C8-1.2 (the amino acid sequence of the heavy chain set forth in SEQ ID NO: 77 and the amino acid sequence of the light chain set forth in SEQ ID NO: 81) were subjected to affinity, binding, blocking and cell function analyses using the methods described in Example 4, Example 5, Example 6, Example 7, Example 8, Example 9 and Example 10.

From patent US20230272086A1 (CHIA TAI TIANQING PHARMACEUTICAL GROUP, published 2023) come the findings set out here.

B1: Chimeric 31C8 (antibody, human IgG2, kappa, V domains shown)
VH: QVQLQQSGPELVRPGASVTLSCKASGYIFIDSEMHWVKQTPVHGLEWIGAIDPETGDTVYNQKFKGKATLTADKSSSTASMELSSLTSEDSAVYYCTGSTTDYYFAYWGQGTTLTVSS
VL: DIVMTQAAFSNPVTLGTSASISCRSSKSLLHSNGIIYLYWYLQKPGQSPQLLIYQMSNLASGVPDRFSSSGSGTDFTLRISRVEAEDVGVYYCAQNLELPFTFGSGTKLEIKR
notes: also called xi31C8
Take B1: in experiment [1], the “IC50, blocking of the IL33/ST2 signaling (NFκB luciferase reporter, HEK293T-hST2-NFκB-Luciferase cells)” value stood at 15.6 nM and the “IC50, blocking of the IL33/ST2 signaling (NFκB luciferase reporter, KU812-NFκB-Luciferase cells naturally expressing hST2, 200 pM hIL33)” value came out at 0.016 nM. The molecule further registered an EC50 in experiment [2] of 0.069 nM.

B2: Humanized 31C8-1.1 (antibody, human IgG2, kappa, V domains shown)
VH: EVQLVQSGAEVKKPGATVKISCKASGYIFIDSEMHWVQQAPGKGLEWMGAIDPETGDTVYAEKFQGRVTITADKSSSTAYMELSSLRSEDTAVYYCTGSTTDYYFAYWGQGTLVTVSS
VL: DIQMTQSPSSLSASVGDRVTITCRSSKSLLHSNGIIYLYWYQQKPGKAPKLLIYQLSNLASGVPSRFSSSGSGTDFTLTISSLQPEDFATYYCAQNLELPFTFGQGTKVEIKR
notes: also called hz31C8-1.1; hz31C81-1.1
For B2, in experiment [1], the “IC50, blocking of the IL33/ST2 signaling (NFκB luciferase reporter, HEK293T-hST2-NFκB-Luciferase cells)” value is 15.9 nM and the “IC50, blocking of the IL33/ST2 signaling (NFκB luciferase reporter, KU812-NFκB-Luciferase cells naturally expressing hST2, 200 pM hIL33)” value was found to be 0.008 nM. The EC50 in experiment [2] was determined as 0.0716 nM.

B3: Humanized 31C8-1.2 (antibody, human IgG2, kappa, V domains shown)
VH: QVQLVQSGAKVKKPGATVKISCKASGYIFIDSEMHWVQQAPGKGLEWMGAIDPETGDTVYAKKFKGRVTITADKSSSTAYMELSSLRSEDTAVYYCTGSTTDYYFAYWGQGTLVTVSS
VL: DIQMTQSPSSLSASVGDRVTITCRSSKSLLHSNGIIYLYWYQQKPGKAPKLLIYQLSNLASGVPSRFSSSGSGTDFTLTISSLQPEDFATYYCAQNLELPFTFGQGTKVEIKR
notes: also called hz31C8-1.2; hz31C81-1.2
As to B3, in experiment [1], the “IC50, blocking of the IL33/ST2 signaling (NFκB luciferase reporter, HEK293T-hST2-NFκB-Luciferase cells)” value came out at 20.4 nM and the “IC50, blocking of the IL33/ST2 signaling (NFκB luciferase reporter, KU812-NFκB-Luciferase cells naturally expressing hST2, 200 pM hIL33)” value was 0.006 nM. Besides, the EC50 in experiment [2] is 0.0746 nM.

B4: RG6149 (antibody Ab2 in CN104334582, prepared in-house) (antibody, human IgG2, kappa, V domains shown)
VH: EVQLVQSGAEVKKPGESLKISCKGSGYSFTNYWIGWVRQMPGKGLEWMGIIYPGNSDTRFSPSFQGQVTISADKSITTAYLQWSSLKASDTAMYYCARHGTSSDYYGLDVWGQGTTVTVSS
VL: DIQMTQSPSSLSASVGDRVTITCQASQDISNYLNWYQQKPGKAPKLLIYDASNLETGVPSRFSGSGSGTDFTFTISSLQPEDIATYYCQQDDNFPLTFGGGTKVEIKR
notes: Control anti-ST2 antibody
Regarding B4, in experiment [1], the “IC50, blocking of the IL33/ST2 signaling (NFκB luciferase reporter, HEK293T-hST2-NFκB-Luciferase cells)” value came out at 84.3 nM and the “IC50, blocking of the IL33/ST2 signaling (NFκB luciferase reporter, KU812-NFκB-Luciferase cells naturally expressing hST2, 200 pM hIL33)” value came out at 0.047 nM. Besides, the EC50 in experiment [2] turned out to be 0.178 nM.

B5: GSK3772847 (antibody STLM208 in CN104411333, prepared in-house) (antibody, human IgG2, kappa, V domains shown)
VH: EVQLLESGGGLVQPGGSLRLSCAASGFTFSIYDMIWVRQAPGKGLEWVSSIRGEGGGTYYADSVKGRFTISRDNSKNTLYLQMNSLRAEDTAVYYCARDPWSTEGSFFVLDYWGQGTLVTVSS
VL: EIVLTQSPATLSLSPGERATLSCRASQSVDDDLAWYQQKPGQAPRLLIYDASNRATGIPARFSGSGSGTDFTLTISSLEPEDFAVYYCQQYITAPLTFGQGTKVEIKR
notes: Control anti-ST2 antibody
Turning to B5, in experiment [1], the “IC50, blocking of the IL33/ST2 signaling (NFκB luciferase reporter, HEK293T-hST2-NFκB-Luciferase cells)” value turned out to be 29.2 nM and the “IC50, blocking of the IL33/ST2 signaling (NFκB luciferase reporter, KU812-NFκB-Luciferase cells naturally expressing hST2, 200 pM hIL33)” value was found to be 0.111 nM. Moreover, the EC50 in experiment [2] amounted to 0.242 nM.

Broadly, the EC50 is the concentration needed to bring the measured effect to its halfway point.
